Test results published in the supplement of paper PMC9112550, “Optimization of the antimicrobial peptide Bac7 by deep mutational scanning” (BMC Biology, 2022).

What follows are sequences tested on Escherichia coli TOP10 (assay: shrunken log2 fold change of peptide-encoding DNA abundance (4.5 h post-induction vs induction); higher = less antimicrobial activity (less host growth inhibition)). Conditions: time post-induction: 4.5 h; library: site-saturation at positions 5, 18, 19, 20.
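Note: peptides expressed intracellularly from a pBAD plasmid library in pooled LB shake-flask culture, induced with 0.3% L-arabinose, DNA abundance read by NGS, three biological replicates, DESeq2 with apeglm shrinkage.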

| Sequence | shrunken log2 fold change |
| --- | --- |
| RRIRNRPPRLPRPRPRPTLYPRP | -0.3 |
| RRIRNRPPRLPRPRPRPTNFPRP | 0.0354 |
| RRIRNRPPRLPRPRPRPTQNPRP | 0.332 |
| RRIRNRPPRLPRPRPRPTRAPRP | 0.683 |
| RRIRNRPPRLPRPRPRPTRNPRP | 0.0941 |
| RRIRNRPPRLPRPRPRPTSLPRP | -0.0597 |
| RRIRNRPPRLPRPRPRPTWDPRP | -0.0897 |
| RRIRNRPPRLPRPRPRPTWHPRP | 0.0157 |
| RRIRNRPPRLPRPRPRPTWMPRP | -0.155 |
| RRIRNRPPRLPRPRPRPTWPPRP | 0.77 |
| RRIRNRPPRLPRPRPRPTYVPRP | -0.143 |
| RRIRNRPPRLPRPRPRPVAHPRP | -0.0475 |
| RRIRNRPPRLPRPRPRPVAPPRP | 0.153 |
| RRIRNRPPRLPRPRPRPVDDPRP | 0.0318 |
| RRIRNRPPRLPRPRPRPVDLPRP | -0.21 |
| RRIRNRPPRLPRPRPRPVFEPRP | 0.07 |
| RRIRNRPPRLPRPRPRPVFRPRP | -0.165 |
| RRIRNRPPRLPRPRPRPVHVPRP | 0.0303 |
| RRIRNRPPRLPRPRPRPVIHPRP | -0.0797 |
| RRIRNRPPRLPRPRPRPVIWPRP | -0.112 |
| RRIRNRPPRLPRPRPRPVKLPRP | 0.032 |
| RRIRNRPPRLPRPRPRPVKRPRP | 0.0962 |

| Sequence | shrunken log2 fold change |
| --- | --- |
| RRIRNRPPRLPRPRPRPVMPPRP | 0.267 |
| RRIRNRPPRLPRPRPRPVMWPRP | 0.351 |
| RRIRNRPPRLPRPRPRPVNGPRP | -0.372 |
| RRIRNRPPRLPRPRPRPVNKPRP | -0.19 |
| RRIRNRPPRLPRPRPRPVSVPRP | -0.143 |
| RRIRNRPPRLPRPRPRPVVFPRP | -0.0743 |
| RRIRNRPPRLPRPRPRPVVYPRP | -0.228 |
| RRIRNRPPRLPRPRPRPVWAPRP | 0.599 |
| RRIRNRPPRLPRPRPRPVWHPRP | -0.154 |
| RRIRNRPPRLPRPRPRPVYFPRP | -0.301 |
| RRIRNRPPRLPRPRPRPWALPRP | -0.0675 |
| RRIRNRPPRLPRPRPRPWCAPRP | -0.0696 |
| RRIRNRPPRLPRPRPRPWCEPRP | 0.034 |
| RRIRNRPPRLPRPRPRPWCVPRP | -0.396 |
| RRIRNRPPRLPRPRPRPWEVPRP | 0.00408 |
| RRIRNRPPRLPRPRPRPWFDPRP | -0.876 |
| RRIRNRPPRLPRPRPRPWHHPRP | -0.209 |
| RRIRNRPPRLPRPRPRPWHLPRP | -0.0913 |
| RRIRNRPPRLPRPRPRPWNHPRP | -0.612 |
| RRIRNRPPRLPRPRPRPWPRPRP | -0.0347 |
| RRIRNRPPRLPRPRPRPWRHPRP | -0.109 |
| RRIRNRPPRLPRPRPRPWRSPRP | 0.111 |

| Sequence | shrunken log2 fold change |
| --- | --- |
| RRIRNRPPRLPRPRPRPWSKPRP | -0.167 |
| RRIRNRPPRLPRPRPRPWVKPRP | -0.0802 |
| RRIRNRPPRLPRPRPRPWVMPRP | -0.00783 |
| RRIRNRPPRLPRPRPRPWYRPRP | -0.117 |
| RRIRNRPPRLPRPRPRPYDNPRP | -0.897 |
| RRIRNRPPRLPRPRPRPYFAPRP | -0.198 |
| RRIRNRPPRLPRPRPRPYFCPRP | -0.5 |
| RRIRNRPPRLPRPRPRPYGIPRP | -0.00992 |
| RRIRNRPPRLPRPRPRPYGLPRP | -0.106 |
| RRIRNRPPRLPRPRPRPYHDPRP | -0.165 |
| RRIRNRPPRLPRPRPRPYHQPRP | -0.308 |
| RRIRNRPPRLPRPRPRPYISPRP | 0.00753 |
| RRIRNRPPRLPRPRPRPYKEPRP | -0.0525 |
| RRIRNRPPRLPRPRPRPYLFPRP | -0.541 |
| RRIRNRPPRLPRPRPRPYNFPRP | -0.176 |
| RRIRNRPPRLPRPRPRPYQKPRP | -0.0633 |
| RRIRNRPPRLPRPRPRPYQVPRP | -0.0131 |
| RRIRNRPPRLPRPRPRPYSGPRP | 0.00884 |
| RRIRNRPPRLPRPRPRPYSQPRP | -0.0488 |
| RRIRNRPPRLPRPRPRPYTCPRP | -0.0637 |
| RRIRNRPPRLPRPRPRPYTIPRP | -0.138 |
| RRIRNRPPRLPRPRPRPYTRPRP | -0.124 |

| Sequence | shrunken log2 fold change |
| --- | --- |
| RRIRNRPPRLPRPRPRPYVFPRP | -0.7 |
| RRIRPRPPRLPRPRPRPAANPRP | 0.17 |
| RRIRPRPPRLPRPRPRPAAYPRP | 0.0551 |
| RRIRPRPPRLPRPRPRPACCPRP | 0.405 |
| RRIRPRPPRLPRPRPRPACPPRP | 0.147 |
| RRIRPRPPRLPRPRPRPACSPRP | 0.184 |
| RRIRPRPPRLPRPRPRPACWPRP | 0.671 |
| RRIRPRPPRLPRPRPRPAEGPRP | 0.394 |
| RRIRPRPPRLPRPRPRPAEPPRP | -0.0331 |
| RRIRPRPPRLPRPRPRPAIRPRP | 0.0298 |
| RRIRPRPPRLPRPRPRPAKCPRP | -0.172 |
| RRIRPRPPRLPRPRPRPAKKPRP | 0.0429 |
| RRIRPRPPRLPRPRPRPALAPRP | 0.412 |
| RRIRPRPPRLPRPRPRPAMYPRP | 0.0514 |
| RRIRPRPPRLPRPRPRPANDPRP | -0.155 |
| RRIRPRPPRLPRPRPRPAQAPRP | 0.329 |
| RRIRPRPPRLPRPRPRPAQKPRP | 0.273 |
| RRIRPRPPRLPRPRPRPASCPRP | 0.186 |
| RRIRPRPPRLPRPRPRPASPPRP | 0.287 |
| RRIRPRPPRLPRPRPRPAWCPRP | 0.252 |
| RRIRPRPPRLPRPRPRPAYSPRP | -0.23 |
| RRIRPRPPRLPRPRPRPCDCPRP | 0.0287 |

| Sequence | shrunken log2 fold change |
| --- | --- |
| RRIRPRPPRLPRPRPRPCECPRP | -0.014 |
| RRIRPRPPRLPRPRPRPCENPRP | -0.0133 |
| RRIRPRPPRLPRPRPRPCFHPRP | -0.202 |
| RRIRPRPPRLPRPRPRPCFTPRP | -0.307 |
| RRIRPRPPRLPRPRPRPCGMPRP | 0.0189 |
| RRIRPRPPRLPRPRPRPCHAPRP | -0.242 |
| RRIRPRPPRLPRPRPRPCHRPRP | -0.181 |
| RRIRPRPPRLPRPRPRPCKKPRP | -0.0659 |
| RRIRPRPPRLPRPRPRPCLTPRP | -0.0809 |
| RRIRPRPPRLPRPRPRPCMFPRP | -0.577 |
| RRIRPRPPRLPRPRPRPCNRPRP | -0.148 |
| RRIRPRPPRLPRPRPRPCPIPRP | 0.082 |
| RRIRPRPPRLPRPRPRPCQAPRP | 0.00851 |
| RRIRPRPPRLPRPRPRPCRHPRP | -0.0363 |
| RRIRPRPPRLPRPRPRPCSCPRP | -0.516 |
| RRIRPRPPRLPRPRPRPCSSPRP | -0.467 |
| RRIRPRPPRLPRPRPRPCSVPRP | 0.0152 |
| RRIRPRPPRLPRPRPRPCTTPRP | -0.732 |
| RRIRPRPPRLPRPRPRPCVWPRP | 0.0579 |
| RRIRPRPPRLPRPRPRPCYGPRP | 0.0701 |
| RRIRPRPPRLPRPRPRPCYNPRP | -0.868 |
